# Key:
# [1] = molecular target: HIV-1 SF162 gp120 (wild type, unmodified) (HIV-1 strain SF162) (UniProt P19550); test: SPR BIAcore 3000, b12 amine-coupled on CM5, gp120 as analyte, 25 C, 1:1 Langmuir fit
# [2] = molecular target: disulfide-stabilized SF162 L1-SS-L2 gp120 (V59C & S109C) (HIV-1 strain SF162) (UniProt P19550); test: SPR BIAcore 3000, b12 immobilized; Kd compared with wild-type gp120
# [3] = molecular target: disulfide-stabilized SF162 L1-SS-L2 gp120 (V59C & S109C) (HIV-1 strain SF162) (UniProt P19550); test: SPR BIAcore 3000, b12 amine-coupled on CM5, gp120 L1-SS-L2 as analyte, 25 C, 1:1 Langmuir fit
substance,measurement,setting,value
mAb b12 (antibody),Kd,[1],0.0448 µM
same,koff,[1],0.00712 s⁻¹
same,kon,[1],165000 M⁻¹ s⁻¹
same,fold difference in Kd against wild-type gp120,[2],< 7 fold
same,Kd,[3],0.304 µM
same,koff,[3],0.00885 s⁻¹
same,kon,[3],29100 M⁻¹ s⁻¹

# Reference: patent US20150183835A1
